Values belong to the binder of their own block, whether it stands above or below them.
Columns and labels:
[1] = molecular target: T1, Recombinant Human DLL4 (delta-like protein 4) (human, UniProt Q9NR61 27-524); experiment: ELISA, DLL4-coated plate, Fab in solution
T1 construct: Bought recombinant human DLL4 (R&D Systems Cat#1506-D4/CF); also called rHuman DLL4; Delta-like 4

[2] = molecular target: T1, Recombinant Human DLL4 (delta-like …); experiment: ECL (MSD) binding assay, DLL4 on plate, Fab in solution
[3] = molecular target: T2, Recombinant Human DLL4 (delta-like protein 4) (human, UniProt Q9NR61 27-524); experiment: ELISA, Fab on coated DLL4, absorbance at 450 nm
T2 construct: also called rHuman DLL4; Delta-like 4

[4] = molecular target: T2, Recombinant Human DLL4 (delta-like …); experiment: ECL (MSD) binding assay, Fab on immobilised recombinant human DLL4
[5] = molecular target: T3, Recombinant Human DLL4 (delta-like protein 4) (human, UniProt Q9NR61 27-524); experiment: ELISA, Fab on plate-coated DLL4
T3 construct: Bought recombinant human DLL4 (R&D Systems Cat#1506-D4/CF); also called rHuman DLL4; Delta-like 4

[6] = molecular target: T3, Recombinant Human DLL4 (delta-like …); experiment: ECL (MSD) binding assay, Fab on immobilized DLL4
[7] = molecular target: T4, Recombinant Human DLL4 (R&D Systems Cat#1506-D4/CF) (human, UniProt Q9NR61 27-524); experiment: ELISA, Fab on plate-coated DLL4, absorbance at 450 nm
T4 construct: also called rHuman DLL4; delta-like protein 4

[8] = molecular target: T4, Recombinant Human DLL4 (R&D Systems …); experiment: ECL (MSD) multispot binding assay, Fab on immobilized recombinant human DLL4
[9] = molecular target: T5, Recombinant Human DLL4 (delta-like protein 4) (human, UniProt Q9NR61 27-524); experiment: 96-well plate ECL (MSD) assay, DLL4 immobilised, Fab at 10 nM
T5 construct: also called rHuman DLL4; Delta-like 4

[10] = molecular target: T5, Recombinant Human DLL4 (delta-like …); experiment: ELISA, DLL4 coated on the plate, Fab at 100 nM, absorbance at 450 nm

B1: Fab VH5-51_IGHD5-18*01>3_IGHJ4*01 G100K/G104T G24L & V3-4_IGLJ1*01 (Fab, V domains shown)
VH: EVQLVQSGAEVKKPGESLKISCKLSGYSFTSYWIGWVRQMPGKGLEWMGIIYPGDSDTRYSPSFQGQVTISADKSISTAYLQWSSLKASDTAMYYCARRKYSYTYDYFDYWGQGTLVTVSS
VL: QTVVTQEPSFSVSPGGTVTLTCGLSSGSVSTSYYPSWYQQTPGQAPRTLIYSTNTRSSGVPDRFSGSILGNKAALTITGAQADDESDYYCVLYMGSGISYVFGTGTKVTVL
notes: Fab made in E. coli; also called KT G24L
- ELISA (Signal-Noise) [1]: 0.09
- ECL signal [2]: 19600

B2: Fab VH5-51_IGHD5-18*01>3_IGHJ4*01 G100K/G104T (KT) & V3-4_IGLJ1*01 R56D (Fab, V domains shown)
VH: EVQLVQSGAEVKKPGESLKISCKGSGYSFTSYWIGWVRQMPGKGLEWMGIIYPGDSDTRYSPSFQGQVTISADKSISTAYLQWSSLKASDTAMYYCARRKYSYTYDYFDYWGQGTLVTVSS
VL: QTVVTQEPSFSVSPGGTVTLTCGLSSGSVSTSYYPSWYQQTPGQAPRTLIYSTNTDSSGVPDRFSGSILGNKAALTITGAQADDESDYYCVLYMGSGISYVFGTGTKVTVL
notes: Fab; also called H:KT & L:R56D
- ELISA signal [3]: 0.19
- ECL signal [4]: 87400

B3: Fab VH5-51_IGHD5-18*01>3_IGHJ4*01 G100K/G104T (KT) & V3-4_IGLJ1*01 S52C (Fab, V domains shown)
VH: EVQLVQSGAEVKKPGESLKISCKGSGYSFTSYWIGWVRQMPGKGLEWMGIIYPGDSDTRYSPSFQGQVTISADKSISTAYLQWSSLKASDTAMYYCARRKYSYTYDYFDYWGQGTLVTVSS
VL: QTVVTQEPSFSVSPGGTVTLTCGLSSGSVSTSYYPSWYQQTPGQAPRTLIYCTNTRSSGVPDRFSGSILGNKAALTITGAQADDESDYYCVLYMGSGISYVFGTGTKVTVL
notes: Tested as a Fab (VH-CH1 with His and Flag tags, lambda VL-CL); also called H:KT & L:S52C
- ELISA signal [5]: 0.1
- ECL signal [6]: 64300

B7: Fab VH5-51_IGHD5-18*01>3_IGHJ4*01 G100K/G104T S28K & V3-4_IGLJ1*01 (Fab, V domains shown)
VH: EVQLVQSGAEVKKPGESLKISCKGSGYKFTSYWIGWVRQMPGKGLEWMGIIYPGDSDTRYSPSFQGQVTISADKSISTAYLQWSSLKASDTAMYYCARRKYSYTYDYFDYWGQGTLVTVSS
VL: QTVVTQEPSFSVSPGGTVTLTCGLSSGSVSTSYYPSWYQQTPGQAPRTLIYSTNTRSSGVPDRFSGSILGNKAALTITGAQADDESDYYCVLYMGSGISYVFGTGTKVTVL
notes: Fab made in E. coli; also called KT S28K
- ELISA (Signal-Noise) [1]: 0.28
- ECL signal [2]: 32300

B10: Fab VH5-51_IGHD5-18*01>3_IGHJ4*01 G100K/G104T G24R & V3-4_IGLJ1*01 (Fab, V domains shown)
VH: EVQLVQSGAEVKKPGESLKISCKRSGYSFTSYWIGWVRQMPGKGLEWMGIIYPGDSDTRYSPSFQGQVTISADKSISTAYLQWSSLKASDTAMYYCARRKYSYTYDYFDYWGQGTLVTVSS
VL: QTVVTQEPSFSVSPGGTVTLTCGLSSGSVSTSYYPSWYQQTPGQAPRTLIYSTNTRSSGVPDRFSGSILGNKAALTITGAQADDESDYYCVLYMGSGISYVFGTGTKVTVL
notes: Fab made in E. coli; also called KT G24R
- ELISA (Signal-Noise) [1]: 0.06
- ECL signal [2]: 4200

B11: Fab VH5-51_IGHD5-18*01>3_IGHJ4*01 G100K/G104T (KT) & V3-4_IGLJ1*01 S52R (Fab, V domains shown)
VH: EVQLVQSGAEVKKPGESLKISCKGSGYSFTSYWIGWVRQMPGKGLEWMGIIYPGDSDTRYSPSFQGQVTISADKSISTAYLQWSSLKASDTAMYYCARRKYSYTYDYFDYWGQGTLVTVSS
VL: QTVVTQEPSFSVSPGGTVTLTCGLSSGSVSTSYYPSWYQQTPGQAPRTLIYRTNTRSSGVPDRFSGSILGNKAALTITGAQADDESDYYCVLYMGSGISYVFGTGTKVTVL
notes: Tested as a Fab (VH-CH1 with His and Flag tags, lambda VL-CL); also called H:KT & L:S52R
- ELISA signal [5]: 0.15
- ECL signal [6]: 85900

B13: Fab VH1-46_IGHD6-6*01_IGHJ1*01 S102A/S103P/S104F/H111F/S54A & L6_IGKJ1*01 S28N/S30D/S31H (Fab, V domains shown)
VH: QVQLVQSGAEVKKPGASVKVSCKASGYTFTSYYMHWVRQAPGQGLEWMGIINPAGGSTSYAQKFQGRVTMTRDTSTSTVYMELSSLRSEDTAVYYCAREEYAPFSAEYFQFWGQGTLVTVSS
VL: EIVLTQSPATLSLSPGERATLSCRASQNVDHYLAWYQQKPGQAPRLLIYDASNRATGIPARFSGSGSGTDFTLTISSLEPEDFAVYYCQQRSNWPPWTFGQGTKVEIKR
notes: also called H:APFF S54A & L:NDH
- ECL Signal [10 nM Fab] [9]: 46700
- ELISA Signal [100 nM Fab] [10]: 0.08

B14: Fab VH1-46_IGHD6-6*01_IGHJ1*01 S102A/S103P/S104F/H111F/G56A & L6_IGKJ1*01 S28N/S30D/S31H (Fab, V domains shown)
VH: QVQLVQSGAEVKKPGASVKVSCKASGYTFTSYYMHWVRQAPGQGLEWMGIINPSGASTSYAQKFQGRVTMTRDTSTSTVYMELSSLRSEDTAVYYCAREEYAPFSAEYFQFWGQGTLVTVSS
VL: EIVLTQSPATLSLSPGERATLSCRASQNVDHYLAWYQQKPGQAPRLLIYDASNRATGIPARFSGSGSGTDFTLTISSLEPEDFAVYYCQQRSNWPPWTFGQGTKVEIKR
notes: also called H:APFF G56A & L:NDH
- ECL Signal [10 nM Fab] [9]: 71600
- ELISA Signal [100 nM Fab] [10]: 0.2

Next, values leading:

- ELISA (Signal-Noise) [7]: 0.02
- ECL Signal/Blank [8]: 40.9
B4: Fab VH5-51_IGHD5-18*01>3_IGHJ4*01 G100K/G104T I50A & V3-4_IGLJ1*01 (Fab, V domains shown)
VH: EVQLVQSGAEVKKPGESLKISCKGSGYSFTSYWIGWVRQMPGKGLEWMGAIYPGDSDTRYSPSFQGQVTISADKSISTAYLQWSSLKASDTAMYYCARRKYSYTYDYFDYWGQGTLVTVSS
VL: QTVVTQEPSFSVSPGGTVTLTCGLSSGSVSTSYYPSWYQQTPGQAPRTLIYSTNTRSSGVPDRFSGSILGNKAALTITGAQADDESDYYCVLYMGSGISYVFGTGTKVTVL
notes: Tested as Fab; CH1 with His6/Flag tags (plasmid A) and lambda CL (plasmid E) come from the expression vectors; also called KT I50A

- ELISA signal [5]: 0.13
- ECL signal [6]: 94300
B5: Fab VH5-51_IGHD5-18*01>3_IGHJ4*01 G100K/G104T (KT) & V3-4_IGLJ1*01 R56I (Fab, V domains shown)
VH: EVQLVQSGAEVKKPGESLKISCKGSGYSFTSYWIGWVRQMPGKGLEWMGIIYPGDSDTRYSPSFQGQVTISADKSISTAYLQWSSLKASDTAMYYCARRKYSYTYDYFDYWGQGTLVTVSS
VL: QTVVTQEPSFSVSPGGTVTLTCGLSSGSVSTSYYPSWYQQTPGQAPRTLIYSTNTISSGVPDRFSGSILGNKAALTITGAQADDESDYYCVLYMGSGISYVFGTGTKVTVL
notes: Tested as a Fab (VH-CH1 with His and Flag tags, lambda VL-CL); also called H:KT & L:R56I

- ELISA (Signal-Noise) [7]: 0.01
- ECL Signal/Blank [8]: 30.6
B6: Fab VH5-51_IGHD5-18*01>3_IGHJ4*01 G100K/G104T I51A & V3-4_IGLJ1*01 (Fab, V domains shown)
VH: EVQLVQSGAEVKKPGESLKISCKGSGYSFTSYWIGWVRQMPGKGLEWMGIAYPGDSDTRYSPSFQGQVTISADKSISTAYLQWSSLKASDTAMYYCARRKYSYTYDYFDYWGQGTLVTVSS
VL: QTVVTQEPSFSVSPGGTVTLTCGLSSGSVSTSYYPSWYQQTPGQAPRTLIYSTNTRSSGVPDRFSGSILGNKAALTITGAQADDESDYYCVLYMGSGISYVFGTGTKVTVL
notes: Tested as Fab; CH1 with His6/Flag tags (plasmid A) and lambda CL (plasmid E) come from the expression vectors; also called KT I51A

- ELISA (Signal-Noise) [7]: 0
- ECL Signal/Blank [8]: 57.7
B8: Fab VH5-51_IGHD5-18*01>3_IGHJ4*01 G100K/G104T P53A & V3-4_IGLJ1*01 (Fab, V domains shown)
VH: EVQLVQSGAEVKKPGESLKISCKGSGYSFTSYWIGWVRQMPGKGLEWMGIIYAGDSDTRYSPSFQGQVTISADKSISTAYLQWSSLKASDTAMYYCARRKYSYTYDYFDYWGQGTLVTVSS
VL: QTVVTQEPSFSVSPGGTVTLTCGLSSGSVSTSYYPSWYQQTPGQAPRTLIYSTNTRSSGVPDRFSGSILGNKAALTITGAQADDESDYYCVLYMGSGISYVFGTGTKVTVL
notes: Tested as Fab; CH1 with His6/Flag tags (plasmid A) and lambda CL (plasmid E) come from the expression vectors; also called KT P53A

- ELISA signal [3]: 0.19
- ECL signal [4]: 93700
B9: Fab VH5-51_IGHD5-18*01>3_IGHJ4*01 G100K/G104T (KT) & V3-4_IGLJ1*01 R56G (Fab, V domains shown)
VH: EVQLVQSGAEVKKPGESLKISCKGSGYSFTSYWIGWVRQMPGKGLEWMGIIYPGDSDTRYSPSFQGQVTISADKSISTAYLQWSSLKASDTAMYYCARRKYSYTYDYFDYWGQGTLVTVSS
VL: QTVVTQEPSFSVSPGGTVTLTCGLSSGSVSTSYYPSWYQQTPGQAPRTLIYSTNTGSSGVPDRFSGSILGNKAALTITGAQADDESDYYCVLYMGSGISYVFGTGTKVTVL
notes: Fab; also called H:KT & L:R56G

- ECL Signal [10 nM Fab] [9]: 49000
- ELISA Signal [100 nM Fab] [10]: 0.08
B12: Fab VH1-46_IGHD6-6*01_IGHJ1*01 S102A/S103P/S104F/H111F & L6_IGKJ1*01 S28N/S30D/S31H (Fab, V domains shown)
VH: QVQLVQSGAEVKKPGASVKVSCKASGYTFTSYYMHWVRQAPGQGLEWMGIINPSGGSTSYAQKFQGRVTMTRDTSTSTVYMELSSLRSEDTAVYYCAREEYAPFSAEYFQFWGQGTLVTVSS
VL: EIVLTQSPATLSLSPGERATLSCRASQNVDHYLAWYQQKPGQAPRLLIYDASNRATGIPARFSGSGSGTDFTLTISSLEPEDFAVYYCQQRSNWPPWTFGQGTKVEIKR
notes: Tested as a Fab expressed in E. coli; also called H:APFF & L:NDH; APFF-NDH

— US20120316071A1 (published 2012)
